The results in this text go back to US20100291682, “SYSTEM FOR TRANSPOSING HYPERACTIVE RECOMBINANT DERIVATIVES OF MOS-1 TRANSPOSON” (published 2010).

Series [1] deals with T1, MBP-Mos-1 transposase (MBP-Tnp) (Drosophila mauritiana, UniProt Q7JQ07 SEQ:1-345).
T1 sequence: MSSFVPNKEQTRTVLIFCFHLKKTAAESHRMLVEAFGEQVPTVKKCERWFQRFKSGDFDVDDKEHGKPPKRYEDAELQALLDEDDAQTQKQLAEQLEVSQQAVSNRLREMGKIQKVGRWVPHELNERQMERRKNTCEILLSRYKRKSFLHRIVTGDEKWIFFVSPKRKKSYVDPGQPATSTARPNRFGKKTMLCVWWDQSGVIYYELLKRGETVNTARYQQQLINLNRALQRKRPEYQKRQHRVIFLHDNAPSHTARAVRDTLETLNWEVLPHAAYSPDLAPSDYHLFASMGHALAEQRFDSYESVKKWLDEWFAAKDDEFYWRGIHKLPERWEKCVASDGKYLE
Description: EMSA. To be noted: complex stability versus ITR alone; MBP tag assumed. For orientation: A gel shift assay detects complexes by their altered migration in electrophoresis.

For series [2], the target named is T1, MBP-Mos-1 transposase (MBP-Tnp). To be noted: active protein (Bmax) versus ITR3'; same Kd as ITR3'; inventors' prior research.
For series [3] the target is unchanged. Description: EMSA; clone number to SEQ mapping not given. The conditions noted are these: tags: N-terminal MBP (pMalC2x); chain copies: 2.

Read-outs that look alike come from different tables or passages of the source.

As for ITR3'/UTR5', in series [1], the binding signal was determined as 4 fold.
Same read-out and setting: under ITR3'/UTR3' stands 4 fold.
Mos-1 ITR5' came in with a binding signal in series [2] of 0.1 fold.

B1: ITRSelex SEQ 44 (dsDNA)
DNA 1: ATAGTGTTTAAAGCTTACT
DNA 2: AGTAAGCTTTAAACACTAT
Turning to B1, the binding result in series [3] was “binds”.

B2: ITRSelex SEQ 42 (dsDNA)
DNA 1: CGATTACAATTATGAAAACTTTCCT
DNA 2: AGGAAAGTTTTCATAATTGTAATCG
For B2, the binding result in series [3] is listed as “binds”.

B3: ITRSelex SEQ 40 (dsDNA)
DNA 1: GCGGGTGTGAAAATATGAAATATTCACT
DNA 2: AGTGAATATTTCATATTTTCACACCCGC
Consider B3, for which the binding result in series [3] was “binds”.

B4: ITRSelex SEQ 45 (dsDNA)
DNA 1: GTCAGTGATGTCACCAACGTATGGAATATCGTAT
DNA 2: ATACGATATTCCATACGTTGGTGACATCACTGAC
With B4, the binding result in series [3] is on record as “binds”.

B5: ITRSelex SEQ 43 (dsDNA)
DNA 1: GGAGAAATGGTAGAATAGTTTA
DNA 2: TAAACTATTCTACCATTTCTCC
On to B5, for which the binding result in series [3] was “binds”.

B6: ITRSelex SEQ 41 (dsDNA)
DNA 1: GAAGAGTTATAACTCAAGAAAACTGAAT
DNA 2: ATTCAGTTTTCTTGAGTTATAACTCTTC
Take B6: the binding result in series [3] is “binds”.
